For this assay, the target named is T1, Mouse Cerberus 1 homologue (mCer1) recombinant protein (mouse, UniProt O55233 18-272).
T1 chain: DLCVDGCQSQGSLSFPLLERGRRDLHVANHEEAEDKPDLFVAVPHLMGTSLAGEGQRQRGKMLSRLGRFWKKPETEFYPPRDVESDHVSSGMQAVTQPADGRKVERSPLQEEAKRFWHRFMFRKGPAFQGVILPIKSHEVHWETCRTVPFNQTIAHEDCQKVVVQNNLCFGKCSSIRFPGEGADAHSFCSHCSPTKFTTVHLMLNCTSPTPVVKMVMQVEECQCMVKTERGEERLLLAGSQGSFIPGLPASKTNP
The assay can be described thus: SPR. (In general: Surface plasmon resonance follows binding to a sensor surface in real time, without labels.)

B1: hBMP2 (ligand)
chain: QAKHKQRKRLKSSCKRHPLYVDFSDVGWNDWIVAPPGYHAFYCHGECPFPLADHLNSTNHAIVQTLVNSVNSKIPKACCVPTELSAISMLYLDENEKVVLKNYQDMVVEGCGCR
What is called Kd is the free concentration of one partner at which half of the binding sites on the other are occupied at equilibrium, for simple one-to-one binding. Consider B1, for which the equilibrium dissociation constant (Kd) came to 0.00338 µM.

B2: hBMP4 (ligand)
chain: SPKHHSQRARKKNKNCRRHSLYVDFSDVGWNDWIVAPPGYQAFYCHGDCPFPLADHLNSTNHAIVQTLVNSVNSSIPKACCVPTELSAISMLYLDEYDKVVLKNYQEMVVEGCGCR
On to B2, for which the Kd came out at 0.0234 µM.

Source of the values: paper PMC3219680 (2011).
